Test [1] deals with T1, native (PBMC derived) human IL-13 (human, UniProt P35225 35-146, limits assumed).
T1 construct: IL-13 in supernatant of stimulated human CD4+ Th2 cells; also called native human IL-13; Native IL-13
Description: ELISA on Th2 cell supernatant read against a standard curve. A general note: ELISA stands for enzyme-linked immunosorbent assay.

The target in test [2] is T2, E. coli-expressed recombinant det-1 tagged human IL-13 (human, UniProt P35225 35-146).
T2 construct: also called Det-1 tagged human IL-13 (made in-house); not shown: det-1 tag
Description: competition ELISA: inhibition of det-1 tagged human IL-13 binding to human IL-13Rα2-Fc.

In test [3] the target is T3, 16mer biotinylated human IL-13 peptide number 24 (human, N-terminal biotin; C-terminal amide).
T3 construct: format Biotin-SGSG-PEPTIDE-amide; also called Peptide 24
T3 peptide: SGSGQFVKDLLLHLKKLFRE
The experiment in a line: BIAcore analysis 3, antibody over biotinylated peptide on SA chip. As to the method:
Completed for the 16mer biotinylated human IL-13 peptide number 24 (identified as the linear binding epitope for parental mAb 6A1, see section 6.7). Note that the absolute KD values obtained for binding to peptide ligands are often quite different to those seen for binding to whole protein targets.
The kinetics analysis was performed on a Biacore 3000 machine using direct binding of antibody to immobilised IL-13 peptide. Briefly, IL-13 biotinylated peptide was captured using a Biacore SA (strepavidin) Biosensor chip. The antibodies were then passed over the sensor surface at various concentrations. The subsequent binding curves were analysed with Biacore analysis software BIAeval 4.1 to determine kinetics. The experiment was carried out using Biacore HBS-EP buffer

Test [4] has as its target T4, E. coli-expressed recombinant cynomolgus IL-13 (cynomolgus, UniProt Q5I6E4 21-132 (Macaca thibetana entry)).
T4 construct: also called cyno IL13 (CA); cIL-13
T4 chain: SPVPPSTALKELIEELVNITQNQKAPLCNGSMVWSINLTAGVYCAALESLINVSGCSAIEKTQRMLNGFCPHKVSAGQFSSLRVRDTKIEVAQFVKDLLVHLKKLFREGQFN
The experiment in a line: BIAcore analysis 4, antibody captured on Protein A, IL-13 in solution. As to the method: (§1) Completed for both human and cynomolgus IL-13 (E. coli-expressed protein). The quoted KD values are the average from 5 different IL-13 concentration curves (done in triplicate).
(§2) The kinetics analysis was performed on a Biacore 3000 machine, using an antibody capture method. Briefly, for the chimeric 6A1 and humanised antibody constructs Protein A capture was used, whilst for the parental murine 6A1 antibody, capture was by a anti-mouse Fc antibody supplied by Biacore. Briefly, the method is as follows, the capture ligand was immobilised to a CM5 Biosensor chip by primary amine coupling in accordance with Biacore standard protocols and using the reagents supplied in Biacores' primary amine coupling kit. The method involves activation CM5 sensor surface by passing a solution of 50 mM N-hydroxy-succinimide (NHS) and 200 mM N-ethyl-N′-dimethylaminopropyl […] (EDC) over the surface. Then, the capture ligand (dissolved in acetate buffer pH5 or pH4.5) was coupled to the activated sensor surface after which any still activated esters were blocked by an injection of 1M ethanolamine hydrochloride, pH8.5.
(§3) The candidate antibody was then passed over the Protein A or anti-mouse Fc antibody surface, depending on whether it was human or mouse in origin and captured. Once a stable binding signal was seen IL13 was passed over the captured antibody surface at various defined concentrations. The subsequent binding curves were analysed with Biacore analysis software BIAeval v4.1 to determine kinetics. The experiments were carried out using Biacore HBS-EP buffer.
For orientation: In SPR one partner is held on a chip, and binding of the other changes the refractive index at the surface.

Test [5] concerns the target T5, E. coli-expressed recombinant human IL-13 (human, UniProt P35225 35-146).
T5 construct: Untagged E. coli-expressed human IL-13; also called hIL-13; human IL13 (CA)
The description is as above. As to the method:
as §1, §2, §3

For test [6], the target named is T5, E. coli-expressed recombinant human …. The experiment in a line: human IL-13 binding sandwich ELISA.
Test [7] addresses T6, E. coli-expressed recombinant human IL-4 (human, UniProt P05112 25-153).
T6 sequence (looked up): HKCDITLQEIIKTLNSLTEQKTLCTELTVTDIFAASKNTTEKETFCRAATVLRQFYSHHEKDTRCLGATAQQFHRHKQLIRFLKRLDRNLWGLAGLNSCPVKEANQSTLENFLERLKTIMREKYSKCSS
Description: binding ELISA.

In test [8] the target is E. coli-expressed recombinant human GM-CSF (human, UniProt P04141 18-144). The experiment in a line: binding ELISA.
Test [9] concerns the target T4, E. coli-expressed recombinant …. Description: cynomolgus IL-13 binding sandwich ELISA.
In test [10] the target is T2, E. coli-expressed recombinant det-1 …. Description: competition ELISA: inhibition of det-1 tagged human IL-13 binding to human IL-13Rα1-Fc.
The target in test [11] is T4, E. coli-expressed recombinant …. The experiment in a line: BIAcore analysis 1, antibody captured, IL-13 in solution. As to the method: (§4) Completed for both human and cynomolgus IL-13 (E. coli-expressed protein). The quoted KD values are the average from 5 different IL-13 concentration curves (done in triplicate). Note that mass transfer issues were apparent in this analysis and that a modified experimental protocol (to correct for this issue) has been completed in analysis 4 (where no mass transfer issues were present).
as §2, §3

The target of test [12] is T5, E. coli-expressed recombinant human …. The test is described as above. As to the method: as §4, §2, §3
The target in test [13] is T4, E. coli-expressed recombinant …. Description: cell-based or functional assay.
The target in test [14] is E. coli-expressed recombinant Q130 human IL-13 (human, UniProt P35225 35-146, limits assumed). The experiment in a line: cell-based or functional assay.
The target in test [15] is T5, E. coli-expressed recombinant human …. The experiment in a line: cell-based or functional assay.
The target in test [16] is mammalian-expressed (CHO cell) human IL-13 (human, UniProt P35225 35-146, limits assumed). Description: cell-based or functional assay.
Test [17] deals with T5, E. coli-expressed recombinant human …. The experiment in a line: human IL-13 binding ELISA, CHO supernatant.
For test [18] the target is unchanged. The experiment in a line: sandwich ELISA.

One may read the IC50 as the midpoint of a concentration-inhibition curve. What is called Kd is the constant that tells how readily two partners part at equilibrium. As usually defined, the koff is the rate constant with which the complex falls apart. By kon is commonly meant a measure of how fast the partners come together. By EC50 is commonly meant the concentration that produces a half-maximal response.

T5 sequence (P35225 other isoform, or with tags, fused parts or gaps): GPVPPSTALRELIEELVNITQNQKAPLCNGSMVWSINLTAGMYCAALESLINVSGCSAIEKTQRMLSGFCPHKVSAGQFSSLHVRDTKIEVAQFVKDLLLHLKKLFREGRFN
T2 sequence (P35225 other isoform, or with tags, fused parts or gaps): as above
mammalian-expressed (CHO cell) human IL-13, sequence (P35225 other isoform, or with tags, fused parts or gaps limits assumed): as the sequence (P35225 other isoform, or with tags, fused parts or gaps) above
T1 sequence (P35225 other isoform, or with tags, fused parts or gaps limits assumed): as the sequence (P35225 other isoform, or with tags, fused parts or gaps) above
E. coli-expressed recombinant human GM-CSF, sequence (P04141 18-144 limits assumed): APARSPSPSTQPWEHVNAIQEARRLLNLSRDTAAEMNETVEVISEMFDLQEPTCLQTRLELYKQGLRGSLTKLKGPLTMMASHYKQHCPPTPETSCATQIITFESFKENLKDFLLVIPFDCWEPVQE
E. coli-expressed recombinant Q130 human IL-13, sequence (P35225 35-146 limits assumed): as the sequence (P35225 other isoform, or with tags, fused parts or gaps) above, with R110Q counted along it

B1: L2+A1 (antibody, human IgG1, kappa, V domains shown)
VH: QVQLVQSGAEVKKPGSSVKVSCKASGFYIKDTYMHWVRQAPGQGLEWMGTIDPANGNTKYVPKFQGRVTITADESTSTAYMELSSLRSEDTAVYYCARSIYDDYHYDDYYAMDYWGQGTLVTVSS
VL: DIVMTQSPLSLPVTPGEPASISCRSSQNIVHINGNTYLEWYLQKPGQSPRLLIYKISDRFSGVPDRFSGSGSGTDFTLKISRVEADDVGVYYCFQGSHVPWTFGQGTKLEIKR
notes: Humanised 6A1, VH construct A1 and VL construct L2; also called A1L2
For the molecule B1, in test [1], the “Native IL-13 (ng/ml) detected in Th2 supernatant” value was found to be 22.7 ng/mL. Moreover, the IC50 worked out at 0.117 µg/mL in test [2] and 0.056 µg/mL in test [10]. The Kd in test [3] worked out at 9.35 nM; in test [4], 0.055 nM; in [5], 0.153 nM; in test [11], 0.097 nM; in test [12], 0.31 nM. Besides, the off-rate (koff) in test [3] came to 0.00167 s⁻¹; in [4] it was 4.25e-05 s⁻¹; in test [5] it was 0.000139 s⁻¹; in test [11] it was 5.58e-05 s⁻¹; in test [12] it was 0.000156 s⁻¹. In addition, the kon in test [3] is 179000 M⁻¹ s⁻¹; in test [4], 772000 M⁻¹ s⁻¹; in test [5], 907000 M⁻¹ s⁻¹; in test [11], 577000 M⁻¹ s⁻¹; in [12], 507000 M⁻¹ s⁻¹. Besides, the EC50 in test [6] was found to be 0.024 µg/mL; in test [9], 0.028 µg/mL. Besides, the binding result in [7] and in [8] was “no binding (tested: 30 µg/ml)” throughout. In addition, the “Mean ND50 for 2 assays” value worked out at 0.12 µg/mL in test [13], 0.705 µg/mL in test [14], 0.608 µg/mL in [15] and 1.2 µg/mL in test [16].

B2: A2L1 (antibody, human IgG1, kappa, V domains shown)
VH: QVQLVQSGAEVKKPGSSVKVSCKASGFYIKDTYMHWVIQAPGQGLEWMGTIDPANGNTKYVPKFQGRVTITADESTSTAYMELSSLRSEDTAVYYCARSIYDDYHYDDYYAMDYWGQGTLVTVSS
VL: DIVMTQSPLSLPVTPGEPASISCRSSQNIVHINGNTYLEWYLQKPGQSPRLLIYKISDRFSGVPDRFSGSGSGTDFTLKISRVEADDVGIYYCFQGSHVPWTFGQGTKLEIKR
notes: Humanised 6A1 combination, tested as CHO cell supernatant
Turning to B2, in [17], the binding result is “binds”.

B3: A3L2 (antibody, human IgG1, kappa, V domains shown)
VH: QVQLVQSGAEVKKPGSSVKVSCKASGFYIKDTYMHWVIQAPGQGLEWMGTIDPANGNTKYVPKFQGRVTITADTSTSTAYMELSSLRSEDTAVYYCARSIYDDYHYDDYYAMDYWGQGTLVTVSS
VL: DIVMTQSPLSLPVTPGEPASISCRSSQNIVHINGNTYLEWYLQKPGQSPRLLIYKISDRFSGVPDRFSGSGSGTDFTLKISRVEADDVGVYYCFQGSHVPWTFGQGTKLEIKR
notes: as for B2
As for B3, the binding result in test [17] is recorded as “binds”.

B4: A4L1 (antibody, human IgG1, kappa, V domains shown)
VH: QVQLVQSGAEVKKPGSSVRVSCKASGFYIKDTYMHWVIQAPGQGLEWMGTIDPANGNTKYVPKFQGRVTITADTSTSTAYMRLSSLRSEDTAVYYCARSIYDDYHYDDYYAMDYWGQGTLVTVSS
VL: DIVMTQSPLSLPVTPGEPASISCRSSQNIVHINGNTYLEWYLQKPGQSPRLLIYKISDRFSGVPDRFSGSGSGTDFTLKISRVEADDVGIYYCFQGSHVPWTFGQGTKLEIKR
notes: as for B2
As to B4, the binding result in test [18] is “binds”.

B5: A3L1 (antibody, human IgG1, kappa, V domains shown)
VH: QVQLVQSGAEVKKPGSSVKVSCKASGFYIKDTYMHWVIQAPGQGLEWMGTIDPANGNTKYVPKFQGRVTITADTSTSTAYMELSSLRSEDTAVYYCARSIYDDYHYDDYYAMDYWGQGTLVTVSS
VL: DIVMTQSPLSLPVTPGEPASISCRSSQNIVHINGNTYLEWYLQKPGQSPRLLIYKISDRFSGVPDRFSGSGSGTDFTLKISRVEADDVGIYYCFQGSHVPWTFGQGTKLEIKR
notes: as for B2
With B5, the binding result in test [17] is “binds”.

B6: A2L2 (antibody, human IgG1, kappa, V domains shown)
VH: QVQLVQSGAEVKKPGSSVKVSCKASGFYIKDTYMHWVIQAPGQGLEWMGTIDPANGNTKYVPKFQGRVTITADESTSTAYMELSSLRSEDTAVYYCARSIYDDYHYDDYYAMDYWGQGTLVTVSS
VL: DIVMTQSPLSLPVTPGEPASISCRSSQNIVHINGNTYLEWYLQKPGQSPRLLIYKISDRFSGVPDRFSGSGSGTDFTLKISRVEADDVGVYYCFQGSHVPWTFGQGTKLEIKR
notes: as for B2
As for B6, the binding result in test [17] is given as “binds”.

B7: A4L2 (antibody, human IgG1, kappa, V domains shown)
VH: QVQLVQSGAEVKKPGSSVRVSCKASGFYIKDTYMHWVIQAPGQGLEWMGTIDPANGNTKYVPKFQGRVTITADTSTSTAYMRLSSLRSEDTAVYYCARSIYDDYHYDDYYAMDYWGQGTLVTVSS
VL: DIVMTQSPLSLPVTPGEPASISCRSSQNIVHINGNTYLEWYLQKPGQSPRLLIYKISDRFSGVPDRFSGSGSGTDFTLKISRVEADDVGVYYCFQGSHVPWTFGQGTKLEIKR
notes: as for B2
Take B7: the binding result in test [18] is “binds”.

The values are drawn from patent US20110243928A1 (published 2011).
